# Experimental data from patent US20180038857A1.
# Biological target: hCXCR3 (human) (UniProt P49682)
# Assay: cell-based or functional assay
# hCXCR3 (human), sequence (P49682 whole entry): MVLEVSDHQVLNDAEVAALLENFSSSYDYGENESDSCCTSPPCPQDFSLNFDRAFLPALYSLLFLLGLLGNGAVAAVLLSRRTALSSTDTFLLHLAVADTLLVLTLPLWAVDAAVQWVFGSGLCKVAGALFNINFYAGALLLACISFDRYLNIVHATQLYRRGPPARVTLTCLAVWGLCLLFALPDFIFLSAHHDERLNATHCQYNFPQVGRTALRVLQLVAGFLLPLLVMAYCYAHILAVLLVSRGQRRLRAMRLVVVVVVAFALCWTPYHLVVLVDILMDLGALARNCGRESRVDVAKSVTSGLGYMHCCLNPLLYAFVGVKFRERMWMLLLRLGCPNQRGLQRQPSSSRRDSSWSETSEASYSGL
binder,measurement,value
"recombinant native ITAC (ligand, UniProt O14625 22-94, looked up) FPMFKRGRCLCIGPGVKAVKVADIEKASIMYPSNNCDKIEVIITLKENKGQRCLNPKSKQARLIIKKVERKNF","EC50, agonist activity in an Aequorin assay",0.7 nM
